The values that follow come from patent US20250277788A1 (GUIZHOU MEDICAL UNIVERSITY, published 2025).

For test [1], the target named is T1, recombinant SARS-COV-2 N protein (SARS-COV-2, UniProt P0DTC9 1-419).
T1 construct: also called nucleocapsid protein
The test can be described thus: SPR (UA Biotech); orientation not stated.

Test [2] addresses T1, recombinant SARS-COV-2 N protein. The experiment in a line: direct ELISA, N protein coated at 5 µg/mL, pNPP colour development.
Test [3] shares this target. The test can be described thus: direct ELISA, N protein coated at 5 µg/mL, pNPP colour development for 90 min.

B1: SARS-COV-2 N protein-specific single-chain antibody H6 (scFv, V domains shown)
VH: EVKLAESGPELVRPGVSVKISCKGSGYTFTDYPMHWVKQSHAKSLEWIGVISTYSGNTNYNQKFRGKATMTVDKSSSTAYMELARLTSEDSAIYYCTRGGNYGFDPWGQGTTLTVSS
notes: also called H6 antibody; scFv H6; not shown: C-terminal tags from the pHENHi vector (c-myc and a His tag, with the NotI junction)
Turning to B1, in test [1], the Kd – broadly, the constant that tells how readily two partners part at equilibrium – amounted to 0.298 nM; the koff (commonly the rate constant with which the complex falls apart) turned out to be 0.000286 s⁻¹; the kon – broadly, a measure of how fast the partners come together – was 958000 M⁻¹ s⁻¹.

B2: H6-AP fusion protein (single-chain antibody H6 fused to alkaline phosphatase) (other)
chain: MAEVKLAESGPELVRPGVSVKISCKGSGYTFTDYPMHWVKQSHAKSLEWIGVISTYSGNTNYNQKFRGKATMTVDKSSSTAYMELARLTSEDSAIYYCTRGGNYGFDPWGQGTTLTVSSAKTTAPSVGGGGSGGGGSGGGGSDIQMTQSHKFLSTSVGDRVNITCKASQDVGTAVAWYQQKPGQSPKLLIYWASTRHTGVPDRFTGSGSGTDFTLTITNVQSEDLAEYFCQQYSSYPLTFGSGTKIEMKRAVDSSGSTSGSGKPGSGEGSTAAAARAPEMPVLENRAAQGDITAPGGARRLTGDQTAALRDSLSDKPAKNIILLIGDGMGDSEITAARNYAEGAGGFFKGIDALPLTGQYTHYALNKKTGKPDYVTSSAASATAWSTGVKTYNGALGVDIHEKDHPTILEMAKAAGLATGNVSTAELQDATPAALVAHVTSRKCYGPSATSEKCPGNALEKGGKGSITEQLLNARADVTLGGGAKTFAETATAGEWQGKTLREQAQARGYQLVSDAASLNSVTEANQQKPLLGLFADGNMPVRWLGPKATYHGNIDKPAVTCTPNPQRNDSVPTLAQMTDKAIELLSKNEKGFFLQVEGASIDKQDHAANPCGQIGETVDLDEAVQRALEFAKKEGNTLVIVTADHAHASQIVAPDTKAPGLTQALNTKDGAVMVMSYGNSEEDSQEHTGSQLRIAAYGPHAANVVGLTDQTDLFYTMKAALGDIAHHHHHH
notes: also called fusion protein H6-AP
With B2, the “fold of OD405 nm over control group (blank blocked wells)” value in test [2] amounted to 16 fold. Besides, the “fold of OD405 nm over control group (blank blocked wells) at 90 min” value in test [3] was 31 fold.
